Tests used:
[1] = molecular target: OD_(CN54)+-Fc (outer domain of HIV-1 CN54 gp120, residues 251-481, with V295N+A394T, fused at its C terminus to the Fc domain of human IgG1) (HIV-1 CN54 | human); assay: SDS-PAGE under non-reducing conditions; purified Fc fusion proteins under non-reducing conditions; data not shown
[2] = molecular target: gp120_(CN54)+-Fc (HIV-1 CN54 gp120 with V295N+A394T, fused at its C terminus to the Fc domain of human IgG1) (HIV-1 CN54 | human); assay: as above

With “OD_(CN54)+-Fc (outer domain of HIV-1 CN54 gp120, residues 251-481, with V295N+A394T, fused at its C terminus to the Fc domain of human IgG1) (Fc fusion)” as the substance, how does the stoichiometry N [1] read?
Its stoichiometry N is 2.

How did the stoichiometry N [2] turn out when “gp120_(CN54)+-Fc (HIV-1 CN54 gp120 with V295N+A394T, fused at its C terminus to the Fc domain of human IgG1) (Fc fusion)” was run?
Its stoichiometry N is 2.
